Reference: patent publication CN116284426A (SUNSHINE GUOJIAN PHARMACEUTICAL SHANGHAI CO LTD, dated 2023)

Legend:
[1] = target: T1, GUCY2C on tumour cells (CW2, CW2-GCC#1, T84) (human, UniProt P25092 24-1073); experiment: flow cytometry on CW2 human colon cancer cells, anti-mouse PE
T1 construct: whole, on cells; Only CW2-GCC#1 is expressly said to express GUCY2C; also called 鸟苷酸环化酶2C; 人结肠癌细胞CW2

[2] = target: T2, GUCY2C-His蛋白 (human GUCY2C extracellular region with C-terminal 6xHis) (human, UniProt P25092 24-430); experiment: ELISA, GUCY2C-His coated at 0.1 ug/mL, anti-mouse HRP (Table 4)
T2 construct: extracellular domain; Made in HEK-293F with an unspecified N-terminal signal peptide; also called 人GUCY2C-His蛋白
T2 sequence (P25092 other isoform, or with tags, fused parts or gaps): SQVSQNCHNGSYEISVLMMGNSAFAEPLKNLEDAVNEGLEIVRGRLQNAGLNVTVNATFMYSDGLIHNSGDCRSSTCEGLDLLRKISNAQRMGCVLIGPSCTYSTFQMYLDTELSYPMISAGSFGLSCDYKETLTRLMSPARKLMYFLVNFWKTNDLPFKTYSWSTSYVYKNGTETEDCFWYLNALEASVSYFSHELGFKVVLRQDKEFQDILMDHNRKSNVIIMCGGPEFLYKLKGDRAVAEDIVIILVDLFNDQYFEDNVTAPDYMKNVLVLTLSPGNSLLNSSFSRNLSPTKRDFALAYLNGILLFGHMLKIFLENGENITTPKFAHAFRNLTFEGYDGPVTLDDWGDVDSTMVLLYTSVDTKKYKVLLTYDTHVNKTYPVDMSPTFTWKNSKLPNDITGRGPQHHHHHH

[3] = target: T3, GUCY2C-Fc蛋白 (human GUCY2C extracellular region fused to human IgG1 Fc) (human, UniProt P25092 24-430); experiment: indirect ELISA, GUCY2C-Fc coated at 1 ug/mL, anti-mouse HRP
T3 construct: extracellular domain; Made in HEK-293F with an unspecified N-terminal signal peptide; also called 人GUCY2C-Fc蛋白; not shown: human IgG1 Fc at the C-terminus in place of the 6xHis tag
T3 sequence (P25092 24-430 limits assumed): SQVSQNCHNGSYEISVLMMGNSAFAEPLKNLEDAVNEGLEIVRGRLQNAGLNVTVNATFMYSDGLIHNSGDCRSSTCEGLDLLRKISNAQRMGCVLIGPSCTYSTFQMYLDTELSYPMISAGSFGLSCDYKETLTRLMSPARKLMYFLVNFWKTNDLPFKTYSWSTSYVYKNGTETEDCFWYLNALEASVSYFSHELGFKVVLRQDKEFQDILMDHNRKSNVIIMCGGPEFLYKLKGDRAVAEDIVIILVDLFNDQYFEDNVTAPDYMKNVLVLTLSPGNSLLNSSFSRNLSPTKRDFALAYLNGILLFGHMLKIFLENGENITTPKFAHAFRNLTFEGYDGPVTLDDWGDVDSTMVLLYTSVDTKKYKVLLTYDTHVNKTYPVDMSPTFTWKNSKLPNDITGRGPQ

[4] = target: T2, GUCY2C-His蛋白 (human GUCY2C …); experiment: ELISA, GUCY2C-His coated, anti-human IgG Fc HRP
[5] = target: T3, GUCY2C-Fc蛋白 (human GUCY2C extracellular …); experiment: ELISA, GUCY2C-Fc coated, anti-human IgG Fab HRP
[6] = target: T2, GUCY2C-His蛋白 (human GUCY2C …); experiment: ELISA, GUCY2C-His coated, anti-human IgG Fab HRP (Table 17)
[7] = target: T2, GUCY2C-His蛋白 (human GUCY2C …); experiment: ELISA, GUCY2C-His coated, anti-human IgG Fab HRP (Table 9)
[8] = target: T2, GUCY2C-His蛋白 (human GUCY2C …); experiment: ELISA, GUCY2C-His coated, anti-human IgG Fc HRP; remark: listed apart in the source
[9] = target: T1, GUCY2C on tumour cells (CW2, CW2-GCC#1, …); experiment: flow cytometry on CW2-GCC#1 cells (GUCY2C-overexpressing CW2)
[10] = target: T3, GUCY2C-Fc蛋白 (human GUCY2C extracellular …); experiment: ELISA, GUCY2C-Fc coated, anti-human IgG Fab HRP (Table 18)
[11] = target: T3, GUCY2C-Fc蛋白 (human GUCY2C extracellular …); experiment: ELISA, GUCY2C-Fc coated, anti-human IgG Fab HRP (Table 11)
[12] = target: T2, GUCY2C-His蛋白 (human GUCY2C …); experiment: ELISA, GUCY2C-His coated at 0.1 ug/mL, anti-mouse HRP (Table 3)

T1 sequence (P25092 24-1073): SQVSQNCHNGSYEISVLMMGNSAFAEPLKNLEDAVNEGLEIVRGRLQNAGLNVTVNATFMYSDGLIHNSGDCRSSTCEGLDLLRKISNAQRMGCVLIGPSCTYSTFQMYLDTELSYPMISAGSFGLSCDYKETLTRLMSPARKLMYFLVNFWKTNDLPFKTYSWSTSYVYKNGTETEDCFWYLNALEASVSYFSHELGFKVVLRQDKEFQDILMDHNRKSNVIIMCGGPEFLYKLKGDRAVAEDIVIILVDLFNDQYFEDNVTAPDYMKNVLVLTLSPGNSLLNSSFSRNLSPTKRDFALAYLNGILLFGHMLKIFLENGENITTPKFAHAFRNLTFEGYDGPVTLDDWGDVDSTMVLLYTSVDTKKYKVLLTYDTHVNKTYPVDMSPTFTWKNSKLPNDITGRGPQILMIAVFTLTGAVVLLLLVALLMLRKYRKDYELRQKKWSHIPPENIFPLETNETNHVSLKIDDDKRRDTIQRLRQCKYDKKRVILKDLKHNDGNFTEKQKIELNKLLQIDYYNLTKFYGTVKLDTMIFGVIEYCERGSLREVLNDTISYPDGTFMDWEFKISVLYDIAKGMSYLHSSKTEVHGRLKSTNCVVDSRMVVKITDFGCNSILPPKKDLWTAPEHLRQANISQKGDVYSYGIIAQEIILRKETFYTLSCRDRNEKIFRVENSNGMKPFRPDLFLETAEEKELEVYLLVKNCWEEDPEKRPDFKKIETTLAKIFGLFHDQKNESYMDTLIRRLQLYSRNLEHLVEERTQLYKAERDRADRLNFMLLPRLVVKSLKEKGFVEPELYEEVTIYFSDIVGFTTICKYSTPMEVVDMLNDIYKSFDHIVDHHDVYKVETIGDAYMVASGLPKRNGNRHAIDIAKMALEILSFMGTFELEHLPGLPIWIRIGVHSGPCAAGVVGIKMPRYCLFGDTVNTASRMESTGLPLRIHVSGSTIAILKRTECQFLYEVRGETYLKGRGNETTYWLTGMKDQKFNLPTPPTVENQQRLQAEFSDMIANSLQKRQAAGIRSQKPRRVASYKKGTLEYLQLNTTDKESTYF

B1: 32H2G1A1 (antibody, V domains shown)
VH: EVMLVESGGDLVKPGGSLKLSCAASGFSFRTYAMSWVRQSPEKSLEWVATISSGSSYIYYPDSVKGRFTVFRDNAKNTLYLQMSSLRSEDSAIYYCTCYRMETFEYWGQGTTLTVSS
VL: DVVMTQTPLSLPVSLGDEASISCRSSQSLVYNNGNTYLHWYLQKPGQSPKLLIYKVSNRFSGVPDRFSGSGSGTDFTLKISRVEAEDLGVYFCSQSTHVPLTFGAGTKLELK
EC50 [1]: 9.6 µg/mL
EC50 [2]: 0.26 nM
EC50 [3]: 0.00709 µg/mL

B2: 32H2-ch (antibody, V domains shown)
VH: EVMLVESGGDLVKPGGSLKLSCAASGFSFRTYAMSWVRQSPEKSLEWVATISSGSSYIYYPDSVKGRFTVFRDNAKNTLYLQMSSLRSEDSAIYYCTCYRMETFEYWGQGTTLTVSS
VL: DVVMTQTPLSLPVSLGDEASISCRSSQSLVYNNGNTYLHWYLQKPGQSPKLLIYKVSNRFSGVPDRFSGSGSGTDFTLKISRVEAEDLGVYFCSQSTHVPLTFGAGTKLELKR
EC50 [4]: 0.141 nM

B3: 10D7A7 (antibody, V domains shown)
VH: QVQLKQSGPGLVQPSQSLSITCTVSGFSLTNYGVHWVRQSPGKGLEWLGVIWSGGRKDYNAAFISRLNITKDNSKSQVFFTMNSLHSDDTAIYYCARHGTYPYWYFALWGAGTSVTISS
VL: DIQMTQTTSSLSASLGDRVTISCRASQDISNYLNWYQQKPDGTFKLLVYYTSRLQSGVPSRFSGSGSGTLYSLTISTLEQEDVATYFCQQGKTLPFSFGGGTRLEIK
EC50 [1]: 0.137 µg/mL
EC50 [2]: 0.8 nM
EC50 [3]: 0.0307 µg/mL

B4: 10D7-ch (antibody, V domains shown)
VH: QVQLKQSGPGLVQPSQSLSITCTVSGFSLTNYGVHWVRQSPGKGLEWLGVIWSGGRKDYNAAFISRLNITKDNSKSQVFFTMNSLHSDDTAIYYCARHGTYPYWYFALWGAGTSVTISS
VL: DIQMTQTTSSLSASLGDRVTISCRASQDISNYLNWYQQKPDGTFKLLVYYTSRLQSGVPSRFSGSGSGTLYSLTISTLEQEDVATYFCQQGKTLPFSFGGGTRLEIKR
EC50 [4]: 0.113 nM

B5: 32H2-Hu (antibody, V domains shown)
VH: EVQLVESGGGLVKPGGSLRLSCAASGFSFRTYAMSWVRQAPGKSLEWVATISSGSSYIYYPDSVKGRFTVSRDNAKNSLYLQMNSLRAEDTAVYYCTCYRMETFEYWGQGTLVTVSS
VL: DVVMTQSPLSLPVTLGQPASISCRSSQSLVYNNGNTYLHWYQQRPGQSPRLLIYKVSNRFSGVPDRFSGSGSGTDFTLKISRVEAEDVGVYFCSQSTHVPLTFGQGTKVEIKR
EC50 [5]: 0.452 nM
EC50 [6]: 0.244 nM
EC50 [7]: 0.24 nM
EC50 [8]: 0.468 nM
EC50 [9]: 96.3 nM
EC50 [10]: 0.759 nM
EC50 [11]: 0.23 nM

B6: 43D11B1D2 (antibody, V domains shown)
VH: DVKLVESGGVLVKLGGSLKLSCAASGFTFSGYFMSWVRQTPEKRLELVAAINSDGGSTYYPDTVKGRFTISRDNAKNTLYLQMSSLKSEDTALYYCARLARYLYAMDYWGQGTSVTVSS
VL: QIVLTQSPAIMSASPGEKVTMTCSASSSVSYMYWYQQKPGSSPRLLIYDTSNLASGVPVRFSGSGSGTSYSLTISRMEAEDAATYYCQQWTSSSWTFGGGTKLEIK
EC50 [1]: 0.365 µg/mL
EC50 [12]: 0.99 nM
EC50 [3]: 0.018 µg/mL

B7: 43D11-ch (antibody, V domains shown)
VH: DVKLVESGGVLVKLGGSLKLSCAASGFTFSGYFMSWVRQTPEKRLELVAAINSDGGSTYYPDTVKGRFTISRDNAKNTLYLQMSSLKSEDTALYYCARLARYLYAMDYWGQGTSVTVSS
VL: QIVLTQSPAIMSASPGEKVTMTCSASSSVSYMYWYQQKPGSSPRLLIYDTSNLASGVPVRFSGSGSGTSYSLTISRMEAEDAATYYCQQWTSSSWTFGGGTKLEIKR
EC50 [4]: 5.19 nM
